Data reported in article PMC12548442.

How the values were obtained:
Test in all cases: NanoBRET
[1] = molecular target: HaloTag-fused and NanoLuc-fused Gag-CA-WM184/185AA (NanoBRET pair); settings: living cells; n = 6; mean ± SE; WMAA signal subtracted; parent: est. 100; read off a plot
[2] = molecular target: HaloTag-fused and NanoLuc-fused Gag-MA-S9F (NanoBRET pair); settings: living cells; n = 6; mean ± SE; WMAA signal subtracted; parent: est. 100; read off a plot
[3] = molecular target: HaloTag-fused and NanoLuc-fused Gag-MA-S9I (NanoBRET pair); settings: living cells; n = 6; mean ± SE; WMAA signal subtracted; parent: est. 100; read off a plot
[4] = molecular target: HaloTag-fused and NanoLuc-fused Gag-MA-S9A (NanoBRET pair); settings: living cells; n = 6; mean ± SE; WMAA signal subtracted; parent: est. 100; read off a plot
[5] = molecular target: HaloTag-fused and NanoLuc-fused Gag-MA-G2A (NanoBRET pair); settings: living cells; n = 6; mean ± SE; WMAA signal subtracted; parent: est. 100
[6] = molecular target: HaloTag-fused and NanoLuc-fused Gag-MA-S9W (NanoBRET pair); settings: living cells; n = 6; mean ± SE; WMAA signal subtracted; parent: est. 100; read off a plot

HaloTag-fused Gag and NanoLuc-fused Gag, wild type (NanoBRET pair) W184A; M185A
percent of parent [1]: 0%

HaloTag-fused Gag and NanoLuc-fused Gag, wild type (NanoBRET pair) S9F
percent of parent [2]: 8.6%

HaloTag-fused Gag and NanoLuc-fused Gag, wild type (NanoBRET pair) S9I
percent of parent [3]: 68%

HaloTag-fused Gag and NanoLuc-fused Gag, wild type (NanoBRET pair) S9A
percent of parent [4]: 72%

HaloTag-fused Gag and NanoLuc-fused Gag, wild type (NanoBRET pair) G2A
percent of parent [5]: 0%

HaloTag-fused Gag and NanoLuc-fused Gag, wild type (NanoBRET pair) S9W
percent of parent [6]: 42%
